Data as given in article PMC6079010.

Target: catalytic domain of KAT2A (as crystallised, apo and with succinyl-CoA)
Experiment: crystal structure; apo (space group P4_(1)2_(1)2) and succinyl-CoA-complexed (P2_(1)3) crystals of the catalytic domain, grown at pH 4.6; octahedral assembly seen in both

## catalytic domain of KAT2A (as crystallised, apo and with succinyl-CoA) (domain or fragment)
  stoichiometry N: 24
